Assay results from patent US8017829.

Tested on: Cre recombinase (bacteriophage P1?)
Experiment: cell_activity
Conditions: rice plant crosses; excision confirmed by Southern blot

## lox site
  activity (% GUS+ progeny (19/75)): 25.3
